The target of assay [1] is T1, Cdc37 tagged at its N terminus with T4 lysozyme (human, UniProt Q16543 1-378).
T1 sequence (looked up): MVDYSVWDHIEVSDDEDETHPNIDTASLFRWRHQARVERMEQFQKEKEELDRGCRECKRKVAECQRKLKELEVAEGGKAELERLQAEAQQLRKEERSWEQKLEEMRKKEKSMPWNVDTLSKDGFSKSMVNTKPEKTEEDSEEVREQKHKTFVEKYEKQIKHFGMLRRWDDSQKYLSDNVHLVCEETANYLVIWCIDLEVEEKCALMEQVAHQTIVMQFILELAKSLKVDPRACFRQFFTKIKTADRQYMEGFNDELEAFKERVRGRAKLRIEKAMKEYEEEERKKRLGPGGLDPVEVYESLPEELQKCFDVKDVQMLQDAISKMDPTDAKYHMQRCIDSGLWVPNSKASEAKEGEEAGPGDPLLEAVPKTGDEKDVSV
Description: cryo-EM structure.

Assay [2] concerns the target T2, Cdc37 of the yeast complex with T4 lysozyme-tagged Cdk4 (human, UniProt Q16543 1-378).
T2 sequence (looked up): T1 sequence (looked up)
As to the kind of experiment: cryo-EM structure.

B1: Cdk4 of the yeast complex with T4 lysozyme-tagged Cdc37 (natural protein, human, UniProt P11802 1-303, looked up)
chain: MATSRYEPVAEIGVGAYGTVYKARDPHSGHFVALKSVRVPNGGGGGGGLPISTVREVALLRRLEAFEHPNVVRLMDVCATSRTDREIKVTLVFEHVDQDLRTYLDKAPPPGLPAETIKDLMRQFLRGLDFLHANCIVHRDLKPENILVTSGGTVKLADFGLARIYSYQMALTPVVVTLWYRAPEVLLQSTYATPVDMWSVGCIFAEMFRRKPLFCGNSEADQLGKIFDLIGLPPEDDWPRDVSLPRGAFPPRGPRPVQSVVPEMEESGAQLLLEMLTFNPHKRISAFRALQHSYLHKDEGNPE
As for B1, the binding result in assay [1] is recorded as “binds”.

B2: Cdk4 tagged at its C terminus with T4 lysozyme (natural protein, human, UniProt P11802 1-303, looked up)
chain: B1 chain
In the case of B2, the binding result in assay [2] is “binds”.

(Values after paper PMC5373496 (Science (New York, N.Y.), 2016).)
